Laboratory results from patent US20150374794A1 (Novo Nordisk, published 2015).
Numbered stars: 1 amine (or outer) side, 2 acyl side, 3 side chain; on linkers, the order of the positions; unused ones are H or OH. Square brackets hold non-standard residues; d marks the D form. Side chains are listed from the residue outwards. Ends that are not written are not given here. * marks the point of attachment. C18 diacid = O=C(O)CCCCCCCCCCCCCCCCC(=O)*; γGlu = O=C(O)[C@H](CCC(=O)[*:2])N[*:1]; AEEA = NCCOCCOCC(=O)O; Aib = CC(C)(N)C(=O)O

Experiments:
human GLP-1 receptor [1] = target: T1, human GLP-1 receptor (human, UniProt P43220 24-463); assay: cell-based or functional assay
human glucagon receptor [2] = target: T2, human glucagon receptor (human, UniProt P47871 26-477); assay: cell-based or functional assay
T2 sequence (P47871 26-477): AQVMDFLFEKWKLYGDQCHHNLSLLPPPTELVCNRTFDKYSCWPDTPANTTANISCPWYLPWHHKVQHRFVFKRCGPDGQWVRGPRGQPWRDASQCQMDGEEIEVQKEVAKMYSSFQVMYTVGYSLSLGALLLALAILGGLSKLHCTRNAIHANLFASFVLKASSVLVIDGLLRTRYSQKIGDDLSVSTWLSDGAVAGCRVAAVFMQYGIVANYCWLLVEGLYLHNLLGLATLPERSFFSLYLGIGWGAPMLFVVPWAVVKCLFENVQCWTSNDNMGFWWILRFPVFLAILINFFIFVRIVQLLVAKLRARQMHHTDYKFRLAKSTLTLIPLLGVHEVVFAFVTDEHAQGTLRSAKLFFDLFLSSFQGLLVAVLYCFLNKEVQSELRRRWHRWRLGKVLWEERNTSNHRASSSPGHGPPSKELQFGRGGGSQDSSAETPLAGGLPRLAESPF

human GLP-1 receptor [3] = target: T1, human GLP-1 receptor; assay: displacement of 125I-GLP-1(7-36)NH2, membranes with human GLP-1R, SPA
Procedure: (§1) The receptor binding of each compound to the human GLP-1 receptor was measured in a displacement binding assay. […] Each derivative was added in a series of concentrations to isolated membranes containing the human GLP-1 receptor and displacement of the labelled ligand was monitored. The receptor binding was reported as the concentration at which half of the labelled ligand was displaced from the receptor, the IC₅₀ value.

human glucagon receptor [4] = target: T2, human glucagon receptor; assay: displacement of 125I-glucagon, membranes with human glucagon receptor, SPA
Procedure: as §1, with “human glucagon” for “human GLP-1”, “ligand is” for “ligand was”

Binder | EC50 GLP-1R, CRE luciferase reporter gene assay in BHK cells (human GLP-1 receptor [1]) | EC50 GlucR, CRE luciferase reporter gene assay in BHK cells (human glucagon receptor [2]) | IC50 (human GLP-1 receptor [3]) | IC50 (human glucagon receptor [4])
H[Aib]QGTFTSDLSKYLDSRRAREFVQWLLNK([γGlu-γGlu-AEEA-AEEA-γGlu-C18 diacid])-NH2 (N-terminus assumed; SMILES CC(C)C[C@H](NC(=O)[C@H](CC(C)C)NC(=O)[C@H](Cc1c[nH]c2ccccc12)NC(=O)[C@H](CCC(N)=O)NC(=O)[C@@H](NC(=O)[C@H](Cc1ccccc1)NC(=O)[C@H](CCC(=O)O)NC(=O)[C@H](CCCNC(=N)N)NC(=O)[C@H](C)NC(=O)[C@H](CCCNC(=N)N)NC(=O)[C@H](CCCNC(=N)N)NC(=O)[C@H](CO)NC(=O)[C@H](CC(=O)O)NC(=O)[C@H](CC(C)C)NC(=O)[C@H](Cc1ccc(O)cc1)NC(=O)[C@H](CCCCN)NC(=O)[C@H](CO)NC(=O)[C@H](CC(C)C)NC(=O)[C@H](CC(=O)O)NC(=O)[C@H](CO)NC(=O)[C@@H](NC(=O)[C@H](Cc1ccccc1)NC(=O)[C@@H](NC(=O)CNC(=O)[C@H](CCC(N)=O)NC(=O)C(C)(C)NC(=O)[C@@H](N)Cc1c[nH]cn1)[C@@H](C)O)[C@@H](C)O)C(C)C)C(=O)N[C@@H](CC(N)=O)C(=O)N[C@@H](CCCCNC(=O)CC[C@H](NC(=O)CC[C@H](NC(=O)COCCOCCNC(=O)COCCOCCNC(=O)CC[C@H](NC(=O)CCCCCCCCCCCCCCCCC(=O)O)C(=O)O)C(=O)O)C(=O)O)C(N)=O) | 0.0147 nM | 0.104 nM | 0.5 nM | 7 nM
H[Aib]QGTFTSDLSKYLDKRAAREFVAWLLNT-NH2 (not fully specified) | 0.0023 nM | 0.22 nM | 0.1 nM | 11 nM
H[Aib]QGTFTSDLSKYLESKRAREFVQWLLKT-NH2 (not fully specified) | 0.0118 nM | 0.0871 nM | 0.2 nM | 7.1 nM
H[Aib]QGTFTSDLSKYLDSRAAREFVQWLLNK([γGlu-γGlu-AEEA-AEEA-γGlu-C18 diacid])-NH2 (N-terminus assumed; SMILES CC(C)C[C@H](NC(=O)[C@H](CC(C)C)NC(=O)[C@H](Cc1c[nH]c2ccccc12)NC(=O)[C@H](CCC(N)=O)NC(=O)[C@@H](NC(=O)[C@H](Cc1ccccc1)NC(=O)[C@H](CCC(=O)O)NC(=O)[C@H](CCCNC(=N)N)NC(=O)[C@H](C)NC(=O)[C@H](C)NC(=O)[C@H](CCCNC(=N)N)NC(=O)[C@H](CO)NC(=O)[C@H](CC(=O)O)NC(=O)[C@H](CC(C)C)NC(=O)[C@H](Cc1ccc(O)cc1)NC(=O)[C@H](CCCCN)NC(=O)[C@H](CO)NC(=O)[C@H](CC(C)C)NC(=O)[C@H](CC(=O)O)NC(=O)[C@H](CO)NC(=O)[C@@H](NC(=O)[C@H](Cc1ccccc1)NC(=O)[C@@H](NC(=O)CNC(=O)[C@H](CCC(N)=O)NC(=O)C(C)(C)NC(=O)[C@@H](N)Cc1c[nH]cn1)[C@@H](C)O)[C@@H](C)O)C(C)C)C(=O)N[C@@H](CC(N)=O)C(=O)N[C@@H](CCCCNC(=O)CC[C@H](NC(=O)CC[C@H](NC(=O)COCCOCCNC(=O)COCCOCCNC(=O)CC[C@H](NC(=O)CCCCCCCCCCCCCCCCC(=O)O)C(=O)O)C(=O)O)C(=O)O)C(N)=O) | 0.0032 nM | 0.699 nM | 0.2 nM | 381 nM
H[Aib]QGTFTSDLSKYLDLRRAREFVQWLLNK([γGlu-γGlu-AEEA-γGlu-C18 diacid])-NH2 (N-terminus assumed; SMILES CC(C)C[C@H](NC(=O)[C@H](CC(C)C)NC(=O)[C@H](Cc1c[nH]c2ccccc12)NC(=O)[C@H](CCC(N)=O)NC(=O)[C@@H](NC(=O)[C@H](Cc1ccccc1)NC(=O)[C@H](CCC(=O)O)NC(=O)[C@H](CCCNC(=N)N)NC(=O)[C@H](C)NC(=O)[C@H](CCCNC(=N)N)NC(=O)[C@H](CCCNC(=N)N)NC(=O)[C@H](CC(C)C)NC(=O)[C@H](CC(=O)O)NC(=O)[C@H](CC(C)C)NC(=O)[C@H](Cc1ccc(O)cc1)NC(=O)[C@H](CCCCN)NC(=O)[C@H](CO)NC(=O)[C@H](CC(C)C)NC(=O)[C@H](CC(=O)O)NC(=O)[C@H](CO)NC(=O)[C@@H](NC(=O)[C@H](Cc1ccccc1)NC(=O)[C@@H](NC(=O)CNC(=O)[C@H](CCC(N)=O)NC(=O)C(C)(C)NC(=O)[C@@H](N)Cc1c[nH]cn1)[C@@H](C)O)[C@@H](C)O)C(C)C)C(=O)N[C@@H](CC(N)=O)C(=O)N[C@@H](CCCCNC(=O)CC[C@H](NC(=O)CC[C@H](NC(=O)COCCOCCNC(=O)CC[C@H](NC(=O)CCCCCCCCCCCCCCCCC(=O)O)C(=O)O)C(=O)O)C(=O)O)C(N)=O) | 0.013 nM | 0.024 nM | 1.2 nM | 29.4 nM
H[Aib]QGTFTSDLSKYLDARRAREFVQWLLNK([γGlu-γGlu-AEEA-γGlu-C18 diacid])-NH2 (N-terminus assumed; SMILES CC(C)C[C@H](NC(=O)[C@H](Cc1ccc(O)cc1)NC(=O)[C@H](CCCCN)NC(=O)[C@H](CO)NC(=O)[C@H](CC(C)C)NC(=O)[C@H](CC(=O)O)NC(=O)[C@H](CO)NC(=O)[C@@H](NC(=O)[C@H](Cc1ccccc1)NC(=O)[C@@H](NC(=O)CNC(=O)[C@H](CCC(N)=O)NC(=O)C(C)(C)NC(=O)[C@@H](N)Cc1c[nH]cn1)[C@@H](C)O)[C@@H](C)O)C(=O)N[C@@H](CC(=O)O)C(=O)N[C@@H](C)C(=O)N[C@@H](CCCNC(=N)N)C(=O)N[C@@H](CCCNC(=N)N)C(=O)N[C@@H](C)C(=O)N[C@@H](CCCNC(=N)N)C(=O)N[C@@H](CCC(=O)O)C(=O)N[C@@H](Cc1ccccc1)C(=O)N[C@H](C(=O)N[C@@H](CCC(N)=O)C(=O)N[C@@H](Cc1c[nH]c2ccccc12)C(=O)N[C@@H](CC(C)C)C(=O)N[C@@H](CC(C)C)C(=O)N[C@@H](CC(N)=O)C(=O)N[C@@H](CCCCNC(=O)CC[C@H](NC(=O)CC[C@H](NC(=O)COCCOCCNC(=O)CC[C@H](NC(=O)CCCCCCCCCCCCCCCCC(=O)O)C(=O)O)C(=O)O)C(=O)O)C(N)=O)C(C)C) | 0.004 nM | 0.012 nM | 0.3 nM | 5.6 nM
